Target: vps35_mouse Vps35 (UniProt Q9EQH3)

Row | Substance | effect of a mutation on the interaction
1 | Vacuolar protein sorting-associated protein 29 (Mus musculus) (from UniProt Q9QZ88-1) I91S | disrupting interaction strength
2 | Vacuolar protein sorting-associated protein 29 (Mus musculus) (from UniProt Q9QZ88-1) N39D | decreasing interaction strength
3 | Vacuolar protein sorting-associated protein 29 (Mus musculus) (from UniProt Q9QZ88-1) V90D | decreasing interaction strength

Source: IntAct's records for PubMed 15965486
